Test results published in paper PMC4525163, “Assembly-driven activation of the AIM2 foreign-dsDNA sensor provides a polymerization template for downstream ASC” (Nature Communications, 2015).

Assays:
[1] = biological target: the molecule itself; test: negative-stain electron microscopy; dsDNA-free AIM2FL variants at 2 uM adsorbed to carbon grids, stained with 1% uranyl formate or uranyl acetate; filaments
[2] = biological target: the molecule itself; test: negative stain electron microscopy; purified protein incubated 30 min with λdsDNA (wild type also with supercoiled and nicked circular plasmids), 160 mM KCl; filament formation on dsDNA

B1: E147A-AIM2FL (natural protein, UniProt O14862 1-343, looked up)
chain: MESKYKEILLLTGLDNITDEELDRFKFFLSDEFNIATGKLHTANRIQVATLMIQNAGAVSAVMKTIRIFQKLNYMLLAKRLQEEKEKVDKQYKSVTKPKPLSQAEMSPAASAAIRNDVAKQRAAPKVSPHVKPEQKQMVAQQESIRAGFQKRCLPVMVLKAKKPFTFETQEGKQEMFHATVATEKEFFFVKVFNTLLKDKFIPKRIIIIARYYRHSGFLEVNSASRVLDAESDQKVNVPLNIIRKAGETPKINTLQTQPLGTIVNGLFVVQKVTEKKKNILFDLSDNTGKMEVLGVRNEDTMKCKEGDKVRLTFFTLSKNGEKLQLTSGVHSTIKVIKAKKKT
notes: AIM2 (absent-in-melanoma-2), full length, residues 1-343, with E147A in the HIN200 domain; source: E. coli ER2566, purified (amylose resin, HiTrap-SP, TEV cleavage, gel filtration); not shown: MBP, N-terminal, cleaved
binding result [1]: binds

B2: Q258A-AIM2FL (natural protein, UniProt O14862 1-343, looked up)
chain: MESKYKEILLLTGLDNITDEELDRFKFFLSDEFNIATGKLHTANRIQVATLMIQNAGAVSAVMKTIRIFQKLNYMLLAKRLQEEKEKVDKQYKSVTKPKPLSQAEMSPAASAAIRNDVAKQRAAPKVSPHVKPEQKQMVAQQESIREGFQKRCLPVMVLKAKKPFTFETQEGKQEMFHATVATEKEFFFVKVFNTLLKDKFIPKRIIIIARYYRHSGFLEVNSASRVLDAESDQKVNVPLNIIRKAGETPKINTLQTAPLGTIVNGLFVVQKVTEKKKNILFDLSDNTGKMEVLGVRNEDTMKCKEGDKVRLTFFTLSKNGEKLQLTSGVHSTIKVIKAKKKT
notes: AIM2 (absent-in-melanoma-2), full length, residues 1-343, with Q258A in the HIN200 domain; source: E. coli ER2566, purified (amylose resin, HiTrap-SP, TEV cleavage, gel filtration); not shown: MBP, N-terminal, cleaved
binding result [1]: binds

B3: T50A-AIM2FL (natural protein, UniProt O14862 1-343, looked up)
chain: MESKYKEILLLTGLDNITDEELDRFKFFLSDEFNIATGKLHTANRIQVAALMIQNAGAVSAVMKTIRIFQKLNYMLLAKRLQEEKEKVDKQYKSVTKPKPLSQAEMSPAASAAIRNDVAKQRAAPKVSPHVKPEQKQMVAQQESIREGFQKRCLPVMVLKAKKPFTFETQEGKQEMFHATVATEKEFFFVKVFNTLLKDKFIPKRIIIIARYYRHSGFLEVNSASRVLDAESDQKVNVPLNIIRKAGETPKINTLQTQPLGTIVNGLFVVQKVTEKKKNILFDLSDNTGKMEVLGVRNEDTMKCKEGDKVRLTFFTLSKNGEKLQLTSGVHSTIKVIKAKKKT
notes: AIM2 (absent-in-melanoma-2), full length, residues 1-343, with T50A in the PYD; source: E. coli ER2566, purified (amylose resin, HiTrap-SP, TEV cleavage, gel filtration); not shown: MBP, N-terminal, cleaved
binding result [1]: binds

B4: I46D mutant of full-length AIM2 (natural protein, UniProt O14862 1-343, looked up)
chain: MESKYKEILLLTGLDNITDEELDRFKFFLSDEFNIATGKLHTANRDQVATLMIQNAGAVSAVMKTIRIFQKLNYMLLAKRLQEEKEKVDKQYKSVTKPKPLSQAEMSPAASAAIRNDVAKQRAAPKVSPHVKPEQKQMVAQQESIREGFQKRCLPVMVLKAKKPFTFETQEGKQEMFHATVATEKEFFFVKVFNTLLKDKFIPKRIIIIARYYRHSGFLEVNSASRVLDAESDQKVNVPLNIIRKAGETPKINTLQTQPLGTIVNGLFVVQKVTEKKKNILFDLSDNTGKMEVLGVRNEDTMKCKEGDKVRLTFFTLSKNGEKLQLTSGVHSTIKVIKAKKKT
notes: AIM2 (absent-in-melanoma-2), residues 1-343, mutation in the PYD; Probably with the MBP tag removed as for wild-type AIM2^FL; source: E. coli ER2566, purified
binding result [2]: binds

B5: L10A-L11A-AIM2^FL (natural protein, UniProt O14862 1-343, looked up)
chain: MESKYKEILAATGLDNITDEELDRFKFFLSDEFNIATGKLHTANRIQVATLMIQNAGAVSAVMKTIRIFQKLNYMLLAKRLQEEKEKVDKQYKSVTKPKPLSQAEMSPAASAAIRNDVAKQRAAPKVSPHVKPEQKQMVAQQESIREGFQKRCLPVMVLKAKKPFTFETQEGKQEMFHATVATEKEFFFVKVFNTLLKDKFIPKRIIIIARYYRHSGFLEVNSASRVLDAESDQKVNVPLNIIRKAGETPKINTLQTQPLGTIVNGLFVVQKVTEKKKNILFDLSDNTGKMEVLGVRNEDTMKCKEGDKVRLTFFTLSKNGEKLQLTSGVHSTIKVIKAKKKT
notes: AIM2 (absent-in-melanoma-2), residues 1-343, mutations in the PYD; Probably with the MBP tag removed as for wild-type AIM2^FL; source: E. coli ER2566, purified
binding result [2]: binds
